Measurements from article PMC7611776.

Assays:
[1] = target: HIV-1 matrix protein (MA), cleaved, in mature cHIV particles (HIV-1); assay: cryo-EM structure
[2] = target: HIV-1 Gag polyprotein, uncleaved, in immature virus particles (MA domain of Gag) (HIV-1); assay: cryo-EM structure

| Substance | stoichiometry N [1] | stoichiometry N [2] |
| --- | --- | --- |
| HIV-1 matrix protein (MA), cleaved, in mature cHIV particles (natural protein) | 3 |  |
| HIV-1 Gag polyprotein, uncleaved, in immature virus particles (MA domain of Gag) (natural protein) |  | 3 |
